Source: patent US20240174744A1 (SCIRHOM, published 2024)

Key:
[1] = target: T1, human iRhom1, endogenously expressed on RH-30 cells (human, UniProt Q96CC6 1-855); experiment: FACS on RH-30 cells (iRhom1-positive, not iRhom2-positive)
T1 construct: RH-30 cells are described as endogenously negative for iRhom2 but endogenously expressing iRhom1; also called NP_071895.3
T1 sequence: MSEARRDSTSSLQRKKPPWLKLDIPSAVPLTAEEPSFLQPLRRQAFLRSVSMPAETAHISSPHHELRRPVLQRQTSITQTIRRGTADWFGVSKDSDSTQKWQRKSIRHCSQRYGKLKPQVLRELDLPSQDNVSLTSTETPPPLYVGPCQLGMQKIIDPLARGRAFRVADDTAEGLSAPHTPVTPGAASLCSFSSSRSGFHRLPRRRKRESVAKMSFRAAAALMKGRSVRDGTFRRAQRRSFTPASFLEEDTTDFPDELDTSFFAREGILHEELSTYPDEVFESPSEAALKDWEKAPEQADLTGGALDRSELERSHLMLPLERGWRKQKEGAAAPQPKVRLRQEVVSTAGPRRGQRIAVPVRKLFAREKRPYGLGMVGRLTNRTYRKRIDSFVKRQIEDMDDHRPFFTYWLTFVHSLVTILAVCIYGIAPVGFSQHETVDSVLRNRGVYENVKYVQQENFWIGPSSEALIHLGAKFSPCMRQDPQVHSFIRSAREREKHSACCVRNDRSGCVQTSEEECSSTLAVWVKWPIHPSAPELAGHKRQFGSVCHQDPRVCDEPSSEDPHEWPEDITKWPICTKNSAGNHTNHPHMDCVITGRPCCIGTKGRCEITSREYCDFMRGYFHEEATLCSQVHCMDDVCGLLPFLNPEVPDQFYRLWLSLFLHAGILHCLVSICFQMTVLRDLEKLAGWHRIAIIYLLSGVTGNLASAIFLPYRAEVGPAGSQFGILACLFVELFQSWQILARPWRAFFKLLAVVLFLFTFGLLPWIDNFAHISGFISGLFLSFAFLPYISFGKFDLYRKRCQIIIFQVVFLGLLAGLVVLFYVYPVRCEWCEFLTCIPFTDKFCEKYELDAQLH

[2] = target: T2, miR2-FL-WT-T7 (mouse iRhom2 full length wild type C-terminally tagged with 3 consecutive copies of the T7 … (mouse, UniProt Q80WQ6 1-827)); experiment: FACS on MEF-DKO-miR2-FL-WT-T7 cells
T2 construct: also called mouse iRhom2 variant expressed by MEF-DKO-miR2-FL-WT-T7 cells
T2 sequence: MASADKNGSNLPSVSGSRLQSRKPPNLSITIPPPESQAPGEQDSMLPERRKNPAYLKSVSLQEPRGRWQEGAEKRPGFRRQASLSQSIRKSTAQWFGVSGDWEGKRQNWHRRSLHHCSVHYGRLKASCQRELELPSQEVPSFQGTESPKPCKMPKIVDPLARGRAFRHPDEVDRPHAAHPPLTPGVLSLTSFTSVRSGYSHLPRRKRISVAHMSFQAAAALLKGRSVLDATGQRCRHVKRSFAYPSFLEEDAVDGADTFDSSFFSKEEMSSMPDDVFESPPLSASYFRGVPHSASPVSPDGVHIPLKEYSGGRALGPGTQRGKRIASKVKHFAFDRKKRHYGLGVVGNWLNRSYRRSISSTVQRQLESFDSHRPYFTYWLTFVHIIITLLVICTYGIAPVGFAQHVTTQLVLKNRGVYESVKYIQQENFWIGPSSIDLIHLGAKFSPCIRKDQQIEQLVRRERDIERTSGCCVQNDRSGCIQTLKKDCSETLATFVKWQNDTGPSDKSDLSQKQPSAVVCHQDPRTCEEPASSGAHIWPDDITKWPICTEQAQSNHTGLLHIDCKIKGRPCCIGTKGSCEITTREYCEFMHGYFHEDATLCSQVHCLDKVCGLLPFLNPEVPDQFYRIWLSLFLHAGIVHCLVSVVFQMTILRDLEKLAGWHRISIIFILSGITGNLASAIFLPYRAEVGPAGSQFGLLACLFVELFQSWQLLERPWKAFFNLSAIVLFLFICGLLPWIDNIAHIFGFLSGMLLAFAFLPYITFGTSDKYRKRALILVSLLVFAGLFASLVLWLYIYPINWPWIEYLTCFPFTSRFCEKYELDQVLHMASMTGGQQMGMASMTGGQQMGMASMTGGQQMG

[3] = target: T3, hiR2-FL-K536A-T7 (human iRhom2 full length K536A, 3 x T7 tag) (human, UniProt Q6PJF5 1-856); experiment: FACS on MEF-DKO-hiR2-FL-K536A-T7 cells, PE anti-mouse IgG F(ab')2 detection
T3 sequence: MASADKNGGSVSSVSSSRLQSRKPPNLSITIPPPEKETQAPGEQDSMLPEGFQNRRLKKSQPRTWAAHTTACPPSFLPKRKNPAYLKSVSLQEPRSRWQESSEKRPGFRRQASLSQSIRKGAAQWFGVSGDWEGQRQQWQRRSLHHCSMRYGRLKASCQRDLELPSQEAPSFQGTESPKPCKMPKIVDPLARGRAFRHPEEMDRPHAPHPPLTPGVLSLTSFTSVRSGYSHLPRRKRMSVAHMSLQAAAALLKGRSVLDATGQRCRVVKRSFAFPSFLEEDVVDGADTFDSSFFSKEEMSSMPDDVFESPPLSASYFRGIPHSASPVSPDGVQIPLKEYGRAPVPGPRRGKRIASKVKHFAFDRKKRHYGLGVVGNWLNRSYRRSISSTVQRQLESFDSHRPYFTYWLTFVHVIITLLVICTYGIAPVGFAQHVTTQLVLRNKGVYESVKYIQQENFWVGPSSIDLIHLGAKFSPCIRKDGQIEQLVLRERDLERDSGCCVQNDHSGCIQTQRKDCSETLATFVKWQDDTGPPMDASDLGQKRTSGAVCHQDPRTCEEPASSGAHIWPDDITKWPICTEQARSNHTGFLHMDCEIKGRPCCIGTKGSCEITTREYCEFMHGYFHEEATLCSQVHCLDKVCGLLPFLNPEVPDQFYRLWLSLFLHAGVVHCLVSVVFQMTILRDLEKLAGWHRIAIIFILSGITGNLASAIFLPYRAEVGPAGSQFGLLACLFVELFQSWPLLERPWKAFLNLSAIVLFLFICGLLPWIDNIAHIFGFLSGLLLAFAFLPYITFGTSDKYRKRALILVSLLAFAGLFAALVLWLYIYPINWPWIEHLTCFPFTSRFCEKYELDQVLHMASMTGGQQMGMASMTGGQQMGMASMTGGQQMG

B1: antibody 16 (antibody, V domains shown)
VH: QVTLKESGPGILQPSQTLSLTCSFSGFSLSTFALGVGWIRQPSGRGLEWLAHIWWDDDKYYNPALKSRLTISKDTSKNHVFLKIANVDTADTATYYCARITTYYYGMDYWGQGTSVTVSS
VL: DIVLSQSPATLSVTPGDSVSLFCRASQSIGNHLHWYQQESHASPRLLIKYASQSISGIPSRFSGSGSGTDFTLSINSVETEDFGMYFCQQSYNWPLTFGAGTKLELK
notes: Mouse IgG, kappa light chain; also called clone #16; m16
- binding result [1]: no binding (tested: 3 µg/ml)

B2: antibody 3 (antibody, V domains shown)
VH: QVTLKESGPGILQPSQTLSLTCSFSGFSLTTFAMGIGWVRQPSGKGLEWLAHIWWDGEKYNNPVLKSRLTISKDTSKNQVFLRIANVDTPDTATYYCARISSIYYIIDNWGQGTSVTVSS
VL: DIVLTQSPATLSVTPGHSVSLSCRASQSISNNLHWYQKKSHESPRLLIKYVSQSISGIPSRFSGSGSGTDFTLSINSVETEDFGMYFCQQSYNWPLTFGAGTKLELK
notes: Mouse IgG, kappa light chain; also called clone #3; purified antibody 3
- binding result [2]: no binding (tested: 3 µg/ml)

B3: antibody 5 (antibody, V domains shown)
VH: QVTLKESGPGILQPSQTLSLTCSFSGFSLSTFGMGVGWIRQPSGKGLEWLAHIWWDDEKYYNSALKSRLTISKATSKNQAFLKIANVDTADTATYYCARISNYGSNYWYFNVWGTGTTVTVSS
VL: QVVLTQSPALMSASPGEKVTMTCSAGSSVSCMYWYQQKPGSSPRVLIYDTSNLASGVPARFTGSGSGTSYSLTISRMEAEDAASYYCQQWNSYPLTFGAGTKLELK
notes: Mouse IgG, kappa light chain; also called clone #5; purified antibody 5
- binding result [3]: no binding (tested: 3 µg/ml)
